Assay results from US20050282743A1, “Molecular interactions in cells” (Arbor Vita Corporation, priority 2001, published 2005).
Ends that are not written are not given here. Peptide text beside a SMILES is read from it. * marks the point of attachment. Biotin = O=C1N[C@H]2[C@H](CS[C@H]2CCCCC(=O)*)N1

How the values were obtained:
Format in all cases: binding
[1] = molecular target: T1, PDZ protein (GST-PDZ fusion) (Homo sapiens, UniProt Q5TCQ9); assay: G' assay (10 uM PL peptide), results of TABLE 7 and TABLE 12; settings: PDZ KIAA1634, PDZ Domain 1
T1 construct: made in house; host or cells: E. coli (DH5alpha, BL21 or JM109)
T1 sequence (Q5TCQ9 1-1481): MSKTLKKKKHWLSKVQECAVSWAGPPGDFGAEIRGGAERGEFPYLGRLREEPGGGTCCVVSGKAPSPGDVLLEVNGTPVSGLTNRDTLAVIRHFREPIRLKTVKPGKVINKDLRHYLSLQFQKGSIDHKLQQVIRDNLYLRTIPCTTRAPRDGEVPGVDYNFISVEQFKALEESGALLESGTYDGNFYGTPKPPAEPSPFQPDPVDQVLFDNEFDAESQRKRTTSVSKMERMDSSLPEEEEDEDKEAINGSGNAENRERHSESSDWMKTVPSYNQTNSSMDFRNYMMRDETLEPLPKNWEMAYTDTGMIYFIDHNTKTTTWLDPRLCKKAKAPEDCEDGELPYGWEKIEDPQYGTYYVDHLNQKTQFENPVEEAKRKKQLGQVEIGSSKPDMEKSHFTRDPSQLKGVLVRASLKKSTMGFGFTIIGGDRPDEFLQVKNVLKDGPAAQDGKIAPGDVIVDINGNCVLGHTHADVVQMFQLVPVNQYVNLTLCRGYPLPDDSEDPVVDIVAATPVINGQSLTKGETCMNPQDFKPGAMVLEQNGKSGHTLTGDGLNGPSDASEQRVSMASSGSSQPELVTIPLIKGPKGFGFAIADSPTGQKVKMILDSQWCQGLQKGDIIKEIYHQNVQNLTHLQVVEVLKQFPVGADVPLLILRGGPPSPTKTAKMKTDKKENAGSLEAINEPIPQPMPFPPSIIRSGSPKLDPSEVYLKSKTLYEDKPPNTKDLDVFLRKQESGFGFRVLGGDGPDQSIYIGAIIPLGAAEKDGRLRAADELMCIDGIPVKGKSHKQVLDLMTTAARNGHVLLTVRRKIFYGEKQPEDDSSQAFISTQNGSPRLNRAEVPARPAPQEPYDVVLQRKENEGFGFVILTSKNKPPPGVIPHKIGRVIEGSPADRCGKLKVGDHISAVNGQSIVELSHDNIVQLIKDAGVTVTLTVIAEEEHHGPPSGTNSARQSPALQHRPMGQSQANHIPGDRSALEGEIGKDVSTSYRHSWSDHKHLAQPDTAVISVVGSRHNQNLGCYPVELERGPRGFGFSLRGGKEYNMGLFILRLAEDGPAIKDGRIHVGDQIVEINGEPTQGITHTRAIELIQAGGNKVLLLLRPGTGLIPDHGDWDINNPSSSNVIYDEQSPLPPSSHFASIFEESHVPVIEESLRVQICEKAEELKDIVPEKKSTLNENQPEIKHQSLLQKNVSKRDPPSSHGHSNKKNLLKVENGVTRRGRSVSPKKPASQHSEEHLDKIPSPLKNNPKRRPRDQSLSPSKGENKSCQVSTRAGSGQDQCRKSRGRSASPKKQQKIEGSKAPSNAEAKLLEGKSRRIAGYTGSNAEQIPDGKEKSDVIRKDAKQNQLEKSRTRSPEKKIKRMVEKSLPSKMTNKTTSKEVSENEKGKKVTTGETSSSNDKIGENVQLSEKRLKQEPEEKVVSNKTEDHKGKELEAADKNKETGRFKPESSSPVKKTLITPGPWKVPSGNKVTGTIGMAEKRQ
Outline: (§1)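 Same steps as the G-zero format, apart from a peptide concentration of 10 uM in place of 20 uM in step 2. Amino-terminally biotinylated PL peptides bind GST-PDZ fusions, and retained peptide is quantified by 450 nm absorbance.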

[2] = molecular target: T2, PDZ protein (GST-PDZ fusion) (Homo sapiens, UniProt Q02410); assay: as above; settings: PDZ Mint 1, PDZ Domain 1, 2
T2 construct: made in house; host or cells: E. coli (DH5alpha, BL21 or JM109)
T2 sequence (Q02410 1-837): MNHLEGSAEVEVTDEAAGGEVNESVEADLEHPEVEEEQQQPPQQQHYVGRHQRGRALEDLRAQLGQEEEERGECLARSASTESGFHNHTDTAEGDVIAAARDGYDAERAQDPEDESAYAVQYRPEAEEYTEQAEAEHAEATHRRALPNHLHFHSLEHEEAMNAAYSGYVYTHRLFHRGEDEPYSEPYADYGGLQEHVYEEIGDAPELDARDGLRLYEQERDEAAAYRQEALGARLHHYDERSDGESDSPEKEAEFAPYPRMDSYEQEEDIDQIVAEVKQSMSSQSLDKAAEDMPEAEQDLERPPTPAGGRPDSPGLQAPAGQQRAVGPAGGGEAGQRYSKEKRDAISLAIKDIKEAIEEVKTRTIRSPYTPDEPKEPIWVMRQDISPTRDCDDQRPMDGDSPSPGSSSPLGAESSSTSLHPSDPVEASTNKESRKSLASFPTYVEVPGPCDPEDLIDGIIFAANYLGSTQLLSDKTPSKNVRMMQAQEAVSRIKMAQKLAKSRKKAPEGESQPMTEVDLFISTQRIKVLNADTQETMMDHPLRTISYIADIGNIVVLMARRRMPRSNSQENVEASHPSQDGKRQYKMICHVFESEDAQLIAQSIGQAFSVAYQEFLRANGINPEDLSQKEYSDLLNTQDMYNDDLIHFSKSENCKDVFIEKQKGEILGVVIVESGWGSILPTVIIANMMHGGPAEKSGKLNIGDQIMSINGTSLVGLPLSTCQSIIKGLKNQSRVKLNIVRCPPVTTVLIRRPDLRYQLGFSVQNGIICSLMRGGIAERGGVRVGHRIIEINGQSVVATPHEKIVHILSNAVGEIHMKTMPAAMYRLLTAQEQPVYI
Outline: as §1

[3] = molecular target: T3, PDZ protein (GST-PDZ fusion) (Homo sapiens, UniProt P55196); assay: as above; settings: PDZ AF6, PDZ Domain 1
T3 construct: made in house; host or cells: E. coli (DH5alpha, BL21 or JM109)
Outline: as §1

[4] = molecular target: T4, PDZ protein (GST-PDZ fusion) (Homo sapiens, UniProt Q12923); assay: as above; settings: PDZ PTPL-1, PDZ Domain 4
T4 construct: made in house; host or cells: E. coli (DH5alpha, BL21 or JM109)
Outline: as §1

[5] = molecular target: T5, PDZ protein (GST-PDZ fusion) (Homo sapiens, UniProt Q8NI35); assay: as above; settings: PDZ INADL, PDZ Domain 3
T5 construct: made in house; host or cells: E. coli (DH5alpha, BL21 or JM109)
Outline: as §1

[6] = molecular target: T6, PDZ-domain polypeptide (GST/PDZ fusion protein) (Homo sapiens, UniProt Q6P0Q8); assay: Apparent affinity (Kd) by titration of PL peptide in the G assay; settings: PDZ KIAA0807(S), PDZ Domain 1; titration of the PL peptide; read-out: Peptide Optimal Conc (Kd, dissociation constant)
T6 construct: made in house; host or cells: E. coli (DH5alpha, BL21 or JM109)
Experimental: The third column labeled “Peptide Optimal Concentration” in the tables is a number reflective of the binding interaction between the PL protein and PDZ protein. […] The column labeled “Protein Optimal Concentration” refers to the protein concentration used to assay PL interaction (in ug/ml); a ‘0’ is indicative of 5 ug/ml protein concentration; any other value represents the concentration (in ug/ml) used to determine the dissociation constant for a given interaction.
The “A” and “G” assays described supra can be used to determine the “apparent affinity” of binding of a PDZ ligand peptide to a PDZ-domain polypeptide. Apparent affinity is determined based on the concentration of one molecule required to saturate the binding of a second molecule (e.g., the binding of a ligand to a receptor). Two particularly useful approaches for quantitation of apparent affinity of PDZ-ligand binding are provided infra.
In cases where satisfying the above criteria proves difficult, an alternative approach (infra) can be used.
(1) A fixed concentration of a PDZ-domain polypeptide and increasing concentrations of a labeled PL peptide (labeled with, for example, biotin or fluorescein, see TABLE 9 for representative peptide amino acid sequences) are mixed together in solution and allowed to react. In certain assays, peptide concentrations are 0.1 uM, 1 uM, 10 uM, 100 uM, 1 mM. In other assays, appropriate reaction times can range from 10 minutes to 2 days at temperatures ranging from 4° C. to 37° C. In some instances, the identical reaction can also be carried out using a non-PDZ domain-containing protein as a control (e.g., if the PDZ-domain polypeptide is fusion protein, the fusion partner can be used).
(2) PDZ-ligand complexes can be separated from unbound labeled peptide using a variety of methods known in the art.
(3) The PDZ-ligand complex is detected based on presence of the label on the peptide ligand using a variety of methods and detectors known to one of skill in the art. For example, if the label is fluorescein and the separation is achieved using HPSEC, an in-line fluorescence detector can be used. The binding can also be detected as described supra for the G assay.

[7] = molecular target: T7, PDZ protein (GST-PDZ fusion) (Homo sapiens, UniProt Q6P0Q8); assay: G' assay (10 uM PL peptide), results of TABLE 7 and TABLE 12
T7 construct: made in house; host or cells: E. coli (DH5alpha, BL21 or JM109)
Outline: as §1

[8] = molecular target: T8, PDZ protein (GST-PDZ fusion) (Homo sapiens, UniProt Q9P202); assay: as above; settings: PDZ KIAA1526, PDZ Domain 1
T8 construct: made in house; host or cells: E. coli (DH5alpha, BL21 or JM109)
T8 sequence (Q9P202 1-907): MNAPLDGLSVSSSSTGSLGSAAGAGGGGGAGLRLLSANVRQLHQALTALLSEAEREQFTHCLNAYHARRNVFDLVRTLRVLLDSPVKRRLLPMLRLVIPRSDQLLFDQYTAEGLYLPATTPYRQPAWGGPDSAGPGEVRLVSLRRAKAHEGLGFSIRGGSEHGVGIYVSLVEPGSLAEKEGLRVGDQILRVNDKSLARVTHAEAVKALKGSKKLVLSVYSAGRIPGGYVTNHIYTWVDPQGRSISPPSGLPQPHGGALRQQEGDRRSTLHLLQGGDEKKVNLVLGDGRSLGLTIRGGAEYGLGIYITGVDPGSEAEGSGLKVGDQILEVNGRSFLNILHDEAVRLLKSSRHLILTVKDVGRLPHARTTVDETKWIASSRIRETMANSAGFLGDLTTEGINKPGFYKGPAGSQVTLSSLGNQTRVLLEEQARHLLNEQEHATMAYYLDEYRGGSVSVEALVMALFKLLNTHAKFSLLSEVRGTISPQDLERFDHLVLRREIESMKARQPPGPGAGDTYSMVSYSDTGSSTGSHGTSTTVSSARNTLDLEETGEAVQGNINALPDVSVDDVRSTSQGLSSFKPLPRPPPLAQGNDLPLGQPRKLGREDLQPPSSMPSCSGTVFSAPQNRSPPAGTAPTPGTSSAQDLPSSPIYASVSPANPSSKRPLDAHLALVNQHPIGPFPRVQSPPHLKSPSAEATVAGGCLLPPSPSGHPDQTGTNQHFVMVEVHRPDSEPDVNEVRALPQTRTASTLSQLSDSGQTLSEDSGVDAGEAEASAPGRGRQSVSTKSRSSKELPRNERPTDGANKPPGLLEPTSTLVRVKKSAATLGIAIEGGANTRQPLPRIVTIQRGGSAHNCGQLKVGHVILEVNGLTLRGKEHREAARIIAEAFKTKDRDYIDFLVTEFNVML
Outline: as §1

[9] = molecular target: T9, PDZ protein (GST-PDZ fusion) (Homo sapiens, UniProt P57105); assay: as above; settings: PDZ Outer Membrane, PDZ Domain 1
T9 construct: made in house; host or cells: E. coli (DH5alpha, BL21 or JM109)
T9 sequence (P57105 1-145): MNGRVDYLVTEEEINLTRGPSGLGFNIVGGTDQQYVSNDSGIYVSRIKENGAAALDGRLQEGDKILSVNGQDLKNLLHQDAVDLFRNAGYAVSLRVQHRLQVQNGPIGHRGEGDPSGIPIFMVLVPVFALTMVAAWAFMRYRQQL
Outline: as §1

T3 sequence (P55196 whole entry, the tested form may be a part): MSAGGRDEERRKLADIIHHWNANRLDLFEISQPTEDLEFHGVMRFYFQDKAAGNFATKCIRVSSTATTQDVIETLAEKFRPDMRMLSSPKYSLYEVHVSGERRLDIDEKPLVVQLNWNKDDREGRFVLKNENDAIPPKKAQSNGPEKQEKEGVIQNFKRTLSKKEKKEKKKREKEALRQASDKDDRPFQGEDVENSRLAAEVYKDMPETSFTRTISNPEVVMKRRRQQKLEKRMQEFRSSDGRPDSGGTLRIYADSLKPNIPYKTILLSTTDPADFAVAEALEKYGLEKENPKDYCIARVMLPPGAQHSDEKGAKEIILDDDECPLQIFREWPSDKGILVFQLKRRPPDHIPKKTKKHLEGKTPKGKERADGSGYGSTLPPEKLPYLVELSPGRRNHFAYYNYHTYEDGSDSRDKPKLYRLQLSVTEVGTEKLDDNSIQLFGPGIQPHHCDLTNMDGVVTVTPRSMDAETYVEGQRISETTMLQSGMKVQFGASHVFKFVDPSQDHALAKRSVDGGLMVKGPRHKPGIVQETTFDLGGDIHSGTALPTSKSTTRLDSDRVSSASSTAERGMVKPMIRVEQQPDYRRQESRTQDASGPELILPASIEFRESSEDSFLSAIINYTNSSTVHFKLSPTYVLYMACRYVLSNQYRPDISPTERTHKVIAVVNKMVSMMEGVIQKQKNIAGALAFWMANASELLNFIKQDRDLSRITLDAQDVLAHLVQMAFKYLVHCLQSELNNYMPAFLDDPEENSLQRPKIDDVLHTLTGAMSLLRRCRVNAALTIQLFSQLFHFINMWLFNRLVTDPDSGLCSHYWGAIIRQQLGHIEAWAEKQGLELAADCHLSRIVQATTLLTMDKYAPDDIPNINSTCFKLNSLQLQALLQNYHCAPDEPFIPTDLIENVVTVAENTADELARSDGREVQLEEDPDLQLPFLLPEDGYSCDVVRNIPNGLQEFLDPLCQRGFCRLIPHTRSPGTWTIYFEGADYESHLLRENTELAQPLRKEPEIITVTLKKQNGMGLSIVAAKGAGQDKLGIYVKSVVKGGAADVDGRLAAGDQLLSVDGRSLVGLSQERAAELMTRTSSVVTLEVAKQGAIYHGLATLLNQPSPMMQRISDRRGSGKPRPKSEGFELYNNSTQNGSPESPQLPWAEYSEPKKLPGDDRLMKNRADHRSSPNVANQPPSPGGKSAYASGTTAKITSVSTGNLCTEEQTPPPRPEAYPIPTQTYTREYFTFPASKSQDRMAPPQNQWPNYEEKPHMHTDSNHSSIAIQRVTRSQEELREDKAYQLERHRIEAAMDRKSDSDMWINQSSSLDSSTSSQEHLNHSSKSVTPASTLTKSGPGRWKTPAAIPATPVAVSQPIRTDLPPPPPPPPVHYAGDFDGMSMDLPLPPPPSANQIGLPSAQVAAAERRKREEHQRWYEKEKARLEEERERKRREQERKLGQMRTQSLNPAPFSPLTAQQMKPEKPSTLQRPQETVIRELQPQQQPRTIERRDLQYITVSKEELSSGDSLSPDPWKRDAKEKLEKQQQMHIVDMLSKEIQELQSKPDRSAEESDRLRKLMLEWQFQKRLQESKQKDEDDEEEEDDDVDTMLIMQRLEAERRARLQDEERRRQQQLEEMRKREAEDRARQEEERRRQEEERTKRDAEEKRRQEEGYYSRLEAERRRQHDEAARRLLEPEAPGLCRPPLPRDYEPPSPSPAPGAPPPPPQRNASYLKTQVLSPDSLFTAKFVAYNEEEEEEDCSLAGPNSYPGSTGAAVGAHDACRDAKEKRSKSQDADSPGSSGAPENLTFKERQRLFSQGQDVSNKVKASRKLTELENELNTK
T7 sequence (Q6P0Q8 whole entry, the tested form may be a part): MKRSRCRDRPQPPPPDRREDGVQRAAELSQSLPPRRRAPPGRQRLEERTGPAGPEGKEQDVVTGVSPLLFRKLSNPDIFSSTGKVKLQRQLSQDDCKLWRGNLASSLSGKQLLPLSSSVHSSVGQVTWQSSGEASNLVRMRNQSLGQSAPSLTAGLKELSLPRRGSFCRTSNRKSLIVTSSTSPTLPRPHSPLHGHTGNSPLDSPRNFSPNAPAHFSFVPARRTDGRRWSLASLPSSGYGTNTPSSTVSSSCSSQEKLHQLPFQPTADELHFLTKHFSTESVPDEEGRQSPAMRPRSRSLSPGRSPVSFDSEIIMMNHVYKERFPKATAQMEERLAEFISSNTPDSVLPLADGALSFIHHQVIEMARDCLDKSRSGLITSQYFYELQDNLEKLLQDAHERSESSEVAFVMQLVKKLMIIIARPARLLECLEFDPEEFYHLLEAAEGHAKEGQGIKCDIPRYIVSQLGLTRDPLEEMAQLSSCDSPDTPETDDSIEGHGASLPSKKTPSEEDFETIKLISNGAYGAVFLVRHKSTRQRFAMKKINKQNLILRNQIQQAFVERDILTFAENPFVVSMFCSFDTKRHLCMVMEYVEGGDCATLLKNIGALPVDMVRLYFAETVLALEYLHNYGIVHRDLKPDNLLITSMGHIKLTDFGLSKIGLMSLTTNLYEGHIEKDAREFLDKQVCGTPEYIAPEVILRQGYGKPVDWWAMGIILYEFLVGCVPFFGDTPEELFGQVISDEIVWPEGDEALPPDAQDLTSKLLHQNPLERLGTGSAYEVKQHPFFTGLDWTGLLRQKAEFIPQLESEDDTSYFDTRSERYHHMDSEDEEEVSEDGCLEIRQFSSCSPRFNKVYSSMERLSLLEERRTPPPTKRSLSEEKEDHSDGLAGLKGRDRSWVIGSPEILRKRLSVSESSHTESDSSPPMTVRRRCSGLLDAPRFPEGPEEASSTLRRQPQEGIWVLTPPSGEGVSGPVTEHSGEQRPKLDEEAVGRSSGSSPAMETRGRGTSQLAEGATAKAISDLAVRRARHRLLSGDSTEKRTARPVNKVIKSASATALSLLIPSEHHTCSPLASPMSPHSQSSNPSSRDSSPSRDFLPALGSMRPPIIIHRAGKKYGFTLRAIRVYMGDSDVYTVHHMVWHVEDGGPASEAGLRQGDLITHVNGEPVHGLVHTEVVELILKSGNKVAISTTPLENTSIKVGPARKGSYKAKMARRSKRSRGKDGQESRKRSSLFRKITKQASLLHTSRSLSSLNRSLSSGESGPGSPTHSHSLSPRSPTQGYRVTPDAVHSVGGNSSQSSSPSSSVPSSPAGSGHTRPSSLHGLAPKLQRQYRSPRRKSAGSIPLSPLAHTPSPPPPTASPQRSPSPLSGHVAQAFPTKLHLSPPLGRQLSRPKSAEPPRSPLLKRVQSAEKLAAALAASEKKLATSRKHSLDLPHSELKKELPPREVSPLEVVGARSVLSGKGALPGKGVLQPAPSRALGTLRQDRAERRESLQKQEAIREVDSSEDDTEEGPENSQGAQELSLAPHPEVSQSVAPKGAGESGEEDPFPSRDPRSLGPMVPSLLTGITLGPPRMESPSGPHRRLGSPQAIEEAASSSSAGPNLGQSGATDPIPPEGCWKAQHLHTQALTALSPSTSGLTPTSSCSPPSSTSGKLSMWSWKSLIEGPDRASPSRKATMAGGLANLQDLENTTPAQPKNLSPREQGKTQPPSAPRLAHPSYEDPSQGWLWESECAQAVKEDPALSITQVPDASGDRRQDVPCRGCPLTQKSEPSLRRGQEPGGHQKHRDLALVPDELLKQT

| Classification [1] | Classification [2] | Classification [3] | Classification [4] | Classification [5] | Kd [6] [µM] | Classification ([7]; PDZ KIAA0807(S), PDZ Domain 1) | Classification ([7]; PDZ KIAA807, PDZ Domain not given) | Classification [8] | Classification [9] | Compound |
| --- | --- | --- | --- | --- | --- | --- | --- | --- | --- | --- |
| 1 (A450 nm 0-1) | 2 (A450 nm 1-2) | 2 (A450 nm 1-2) |  |  |  |  |  |  |  | SSPDSSYQGKGFVMSRAMYV (Biotin-SSPDSSYQGKGFVMSRAMYV) [Nectin 2] |
|  |  | 1 (A450 nm 0-1) | 1 (A450 nm 0-1) | 1 (A450 nm 0-1) |  |  |  |  |  | YSQPSARSEGEFKQTSSFLV (Biotin-YSQPSARSEGEFKQTSSFLV) [JAM (junctional adhesion molecule)] |
|  |  |  |  |  | 4 | 4 (A450 nm 3-4) | 3 (A450 nm 2-3) | 2 (A450 nm 1-2) | 2 (A450 nm 1-2) | CC[C@H](C)[C@H](NC(=O)[C@H](CO)NC(=O)[C@@H](NC(=O)CNC(=O)[C@H](CCCNC(=N)N)NC(=O)[C@H](CC(=O)O)NC(=O)[C@@H]1CCCN1C(=O)[C@H](CC(=O)O)NC(=O)[C@H](CC(N)=O)NC(=O)CNC(=O)[C@H](CC(C)C)NC(=O)[C@H](CC(N)=O)NC(=O)[C@H](CC(C)C)NC(=O)CNC(=O)[C@H](CC(C)C)NC(=O)[C@@H](NC(=O)[C@@H]1CCCN1C(=O)[C@@H](NC(=O)[C@@H]1CCCN1C(=O)[C@H](CCC(N)=O)NC(=O)CCCC[C@@H]1SC[C@@H]2NC(=O)N[C@@H]21)[C@@H](C)O)[C@@H](C)O)[C@@H](C)O)C(=O)O [GluR delta-2] (Biotin-QPTPTLGLNLGNDPDRGTSI-OH; C-terminus assumed) |
